Assay results reported in patent US20190071501A1 (REYOUNG SUZHOU BIOLOGY SCIENCE AND TECHNOLOGY, published 2019).
Blank lines part the entries; values can stand above or below the binder they belong to.

Assays:
PD1-His [1] = molecular target: T1, PD1-His (human, UniProt Q15116 25-167, limits assumed); test: ELISA, PD1-His coated; ELISA, PD1-His on the plate
T1 construct: also called hPD-1; not shown: His tag
Method: Lay PD1-His on the plate, add gradient diluted antibody, incubate and wash it, and then add goat anti-mouse-HRP, perform coloration, and draw up the reaction curve by fitting of readings (see FIG. 6 for results) to calculate the EC50 value.

[2] = molecular target: T2, PD-1 antigen of the Biacore experiment (not given) (UniProt Q15116 25-167, limits assumed); test: SPR (Biacore), antibody captured by goat anti-human IgG on CM5 chip
T2 construct: Embodiment 5 describes capture by goat anti-human IgG on the chip but never names the analyte
T2 sequence (Q15116 25-167 limits assumed): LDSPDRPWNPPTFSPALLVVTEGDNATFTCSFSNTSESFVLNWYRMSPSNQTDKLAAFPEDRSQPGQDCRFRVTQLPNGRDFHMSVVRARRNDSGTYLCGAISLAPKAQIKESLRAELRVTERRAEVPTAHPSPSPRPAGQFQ
From the text: Biacore is used to analyze the affinity and binding kinetics of the antibody expressed in cell line 4. Using standard amine coupling chemistry and the kit provided by Biacore, the goat anti-human IgG is covalently linked to CMS chip by primary amine. Make the antibody flow in the HBS EP buffer at a flow rate of […] and measure the binding. The binding time is 300 seconds, and the dissociation time is 7200 seconds.

mouse pd1 = molecular target: T3, mouse pd1 (mouse, UniProt Q02242); test: ELISA: protein coated at 0.5 ug/mL, antibody at 0.5 ug/mL, goat anti-human FAB-HRP, OD450
T3 construct: recombinant protein coated on the ELISA plate; also called recombinant mouse PD-1
T3 sequence (receptor, looked up): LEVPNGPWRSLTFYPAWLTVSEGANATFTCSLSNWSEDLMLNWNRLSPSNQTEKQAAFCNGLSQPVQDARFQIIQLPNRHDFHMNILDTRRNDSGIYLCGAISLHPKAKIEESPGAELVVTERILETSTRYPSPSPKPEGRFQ
Method: (§1) The binding of recombinant human CD28, recombinant human CTLA-4, recombinant mouse PD-1, recombinant M.fascicularis PD-1 and recombinant human PD-1 protein in recombinant CD28 family to antibodies is tested. Different proteins are stored at 0.5 μg/mL in enveloping buffer at 4° C. overnight. Remove the solution in wells the next day and wash with PBST for twice. Then add 1% BSA, seal at 37° C. for 1 hour, then wash with PBST for twice. Add 0.5 μg/mL antibody samples, incubate for 1 hour, and wash with PBST for three times. Dilute with goat anti-human FAB-HRP at ratio of 1:10000, incubate for 1 hour at 37 C, and wash with PBST for three times. Add TMB for 15 min coloration, stop the reaction with 0.5M H2SO4 and read out the absorbance at 450 nm.

recombinant human CD28 = molecular target: T4, recombinant human CD28 (human, UniProt P10747 19-152, limits assumed); test: as above
T4 construct: Plate-coated at 0.5 ug/mL in Embodiment 8
T4 sequence (P10747 19-152 limits assumed): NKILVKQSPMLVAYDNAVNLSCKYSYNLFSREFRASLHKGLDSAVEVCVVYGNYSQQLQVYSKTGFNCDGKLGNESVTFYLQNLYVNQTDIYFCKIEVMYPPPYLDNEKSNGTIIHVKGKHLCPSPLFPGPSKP
Method: as §1

recombinant human CTLA-4 = molecular target: T5, recombinant human CTLA-4 (human, UniProt P16410 36-161, limits assumed); test: as above
T5 construct: Plate-coated at 0.5 ug/mL in Embodiment 8
T5 sequence (looked up): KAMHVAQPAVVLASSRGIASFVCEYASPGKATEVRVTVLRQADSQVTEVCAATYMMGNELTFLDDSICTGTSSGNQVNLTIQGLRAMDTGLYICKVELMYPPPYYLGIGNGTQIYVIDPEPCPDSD
Method: as §1

[3] = molecular target: Recombinant human PD-1 fusion protein (human); test: ELISA: recombinant human PD-1 fusion protein coated at 0.5 ug/mL, antibody kept 1 day in monkey serum at 37 C, goat anti-human FAB-HRP, OD450
Chain of Recombinant human PD-1 fusion protein (human) (Q15116 25-170): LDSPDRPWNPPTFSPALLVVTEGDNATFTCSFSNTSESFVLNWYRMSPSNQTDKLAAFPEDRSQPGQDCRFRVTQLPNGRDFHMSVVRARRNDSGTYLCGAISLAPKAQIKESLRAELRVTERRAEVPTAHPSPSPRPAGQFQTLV

[4] = molecular target: Recombinant human PD-1 fusion protein (human); test: ELISA: recombinant human PD-1 fusion protein coated at 0.5 ug/mL, antibody kept 0 days in monkey serum at 37 C, goat anti-human FAB-HRP, OD450
[5] = molecular target: Recombinant human PD-1 fusion protein (human); test: ELISA: recombinant human PD-1 fusion protein coated at 0.5 ug/mL, antibody kept 4 days in monkey serum at 37 C, goat anti-human FAB-HRP, OD450
[6] = molecular target: Recombinant human PD-1 fusion protein (human); test: ELISA: recombinant human PD-1 fusion protein coated at 0.5 ug/mL, antibody kept 7 days in monkey serum at 37 C, goat anti-human FAB-HRP, OD450
PD1-Fc-His [7] = molecular target: T6, PD1-Fc-His (UniProt Q15116 25-167, limits assumed); test: Inhibition ELISA: graded antibody pre-incubated with PD1-Fc-His, added to a plate laid with 'PD1-Fc' (so in the source), anti-His-HRP, OD450
T6 construct: not shown: Fc; His tag
T6 sequence (Q15116 25-167 limits assumed): as the sequence (Q15116 25-167 limits assumed) above
Method: (§2) Incubate the gradient diluted antibody and a certain concentration of PD1-Fc-His in advance, then add the mixture to the plate laid with PD1-Fc. Add anti-His-HRP to the plate after incubating and washing. Then perform coloration. Draw up the reaction curve by fitting of readings (see FIG. 7 for results) to calculate the IC50 value.

PD1-Fc-His [8] = molecular target: T6, PD1-Fc-His; test: competition ELISA: antibody pre-incubated with PD1-Fc-His, plate coated with 'PD1-Fc' (competitor (so in the source)), anti-His-HRP; humanized-section antibody; ELISA competition, PD1-Fc-His in solution
Method: as §2

[9] = molecular target: T7, PD1 on PD1-27 cells (PD1 over-expressed CHO-K1 stable transfected cells) (UniProt Q15116 25-288); test: direct cell binding on PD1-27 CHO-K1 cells, EU fluorescence (heading 'Cell binding activity'; value printed as 'cell inhibitory activity IC50'); direct cell binding on PD1-27 cells, no competitor
T7 construct: whole, on cells
T7 sequence (Q15116 25-288 limits assumed): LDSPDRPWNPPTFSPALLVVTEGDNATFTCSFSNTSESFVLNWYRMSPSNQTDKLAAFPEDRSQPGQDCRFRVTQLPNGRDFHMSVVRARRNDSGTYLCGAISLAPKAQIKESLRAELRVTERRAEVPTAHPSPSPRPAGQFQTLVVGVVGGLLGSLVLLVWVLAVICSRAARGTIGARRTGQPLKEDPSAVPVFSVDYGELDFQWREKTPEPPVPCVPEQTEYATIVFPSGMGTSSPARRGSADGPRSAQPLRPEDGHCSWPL
From the text: (§3) Lay PD1-27 (PD1 over-expressed CHO-K1 stable transfected cells) on the cell plate for culture inspection one day ahead of schedule. After closure on the next day, add gradient-diluted antibody, then anti-mouse-EU after washing, then fluorescence enhancement solution after washing, and obtain the readings.

PD1-His [10] = molecular target: T1, PD1-His; test: ELISA, PD1-His coated, goat anti-mouse-HRP
Method: Envelop PD1-His on the plate, add gradient diluted antibody, incubate and wash it, and then add goat anti-mouse-HRP, perform coloration, and draw up the reaction curve by fitting of readings (see FIG. 1 for results) to calculate the EC50 value.

[11] = molecular target: T7, PD1 on PD1-27 cells (PD1 over-expressed …); test: cell binding on PD1-27 CHO-K1 cells, anti-mouse-EU fluorescence
From the text: as §3

PD1-Fc-His [12] = molecular target: T6, PD1-Fc-His; test: Inhibition ELISA: graded antibody pre-incubated with PD1-Fc-His, added to a plate coated with 'PD1-Fc' (so in the source), anti-His-HRP, OD450
Method: as §2, with “enveloped” for “laid”, “2” for “7”

[13] = molecular target: T7, PD1 on PD1-27 cells (PD1 over-expressed …); test: cell competition on PD1-27 CHO-K1 cells against 'PD1-Fc' (competitor (so in the source)), anti-Human-EU; mouse antibody; cell competition on PD1-27 CHO-K1 cells
From the text: Lay PD1-27 (PD1 over-expressed CHO-K1 stable transfected cells) on the cell plate for culture inspection one day ahead of schedule. After closure on the next day, add gradient-diluted antibody and PD1-Fc, then anti-Human-EU after washing, and then fluorescence enhancement solution after washing.

PD1-Fc-His [14] = molecular target: T6, PD1-Fc-His; test: competition ELISA: antibody pre-incubated with PD1-Fc-His, plate coated with 'PD1-Fc' (competitor (so in the source)), anti-His-HRP; mouse antibody; ELISA competition, PD1-Fc-His in solution
Method: as §2, with “enveloped” for “laid”, “2” for “7”

T1 sequence (Q15116 25-167 limits assumed): as the sequence (Q15116 25-167 limits assumed) above

EC50 (PD1-His [1]): 0.00609 µg/mL
Kd [2]: 0.422 nM
koff [2]: 1.93e-05 s⁻¹
kon [2]: 45700 M⁻¹ s⁻¹
binding result (mouse pd1): no binding (tested: 0.5 ug/mL)
binding result (recombinant human CD28): no binding (tested: 0.5 ug/mL)
binding result (recombinant human CTLA-4): no binding (tested: 0.5 ug/mL)
EC50 (read off the curve) [3]: 0.04 µg/mL
EC50 (read off the curve) [4]: 0.04 µg/mL
EC50 (read off the curve) [5]: 0.04 µg/mL
EC50 (read off the curve) [6]: 0.04 µg/mL
IC50 (read off the curve) (PD1-Fc-His [7]): ~0.4 µg/mL
IC50 (PD1-Fc-His [8]): 406 nM
EC50 [9]: 0.103 µg/mL
B1: humanized antibody anti-PD-1 (antibody, V domains shown)
VH: EVQLVESGGGLVKPGGSLRLSCAASGFTFSSYTMSWVRQAPGKGLEWVATISNGGSFTYYPDSMKGRFTISRDNSKNTLYLQMSSLRAEDTAVYYCARDSDYYGIFDYWGQGTTVTVSS
VL: DIVMTQSPLSLPVTPGEPASISCRSSKSLLYKDGKTYLNWYLQKPGQSPQLLIYLMSTRASGVPDRFSGSGSGTDFTLKISRVEAEDVGVYYCQQLVEDPFTFGQGTKLEIKR
notes: Human constant regions; also called humanized PD-1 antibody; hup01 (plasmids P3.1GS-hup01-HC / P3.1GS-hup01-LC)

EC50 (PD1-His [10]): 0.0024 µg/mL
EC50 [11]: 0.0878 µg/mL
IC50 (read off the curve) (PD1-Fc-His [12]): ~0.004 µg/mL
IC50 [13]: 0.284 µg/mL
IC50 (PD1-Fc-His [14]): 3.83 nM
B2: mouse anti-PD-1 (antibody, V domains shown)
VH: DVKLVESGGGLVKPGGSLKLSCAASGFTFSSYTMSWVRQTPEKRLEWVATISNGGSFTYYPDSMKGRFTISRDNAKNTLYLQMSSLKSEDTAMYYCTRDSDYYGIFDYWGQGTTLTVSS
VL: DIVITQDELSNPVTSGESVSISCRSSKSLLYKDGKTYLNWFLQRPGQSPQLLIYLMSTRASGVSDRFSGSGSGTDFTLEISRVKAEDVGVYYCQQLVEDPFTFGSGTKLEIKR
notes: also called mouse anti-PD-1 monoclonal antibody; mouse PD-1 antibody
